Data on five molecules can be found in patent US20240132587A1 (published 2024).

Holding throughout (assay): flow cytometry, HEK293 cells
(In general: A flow cytometer gives signals particle by particle.)

Assay [1] deals with human CLDN18.2 (human, UniProt P56856 1-261).
The target in assay [2] is T1, rat CLDN18.2 (rat, UniProt Q5I0E5 1-261).
T1 chain: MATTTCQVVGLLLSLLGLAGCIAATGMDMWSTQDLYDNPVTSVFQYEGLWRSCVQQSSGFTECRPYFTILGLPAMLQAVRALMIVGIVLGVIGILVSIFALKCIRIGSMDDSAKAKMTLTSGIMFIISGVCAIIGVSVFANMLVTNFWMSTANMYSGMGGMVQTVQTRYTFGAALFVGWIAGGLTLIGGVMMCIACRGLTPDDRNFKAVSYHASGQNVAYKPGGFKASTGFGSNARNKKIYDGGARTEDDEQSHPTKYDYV

The target in assay [3] is T2, mouse CLDN18.2 (mouse, UniProt P56857 1-264).
T2 chain: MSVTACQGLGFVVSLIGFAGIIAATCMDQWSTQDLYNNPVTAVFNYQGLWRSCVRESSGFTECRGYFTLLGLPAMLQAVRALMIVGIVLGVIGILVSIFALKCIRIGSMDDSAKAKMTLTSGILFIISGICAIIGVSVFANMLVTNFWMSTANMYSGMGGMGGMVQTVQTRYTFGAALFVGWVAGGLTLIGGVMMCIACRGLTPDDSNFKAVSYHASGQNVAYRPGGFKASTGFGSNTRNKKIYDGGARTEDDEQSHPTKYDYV

Chain of human CLDN18.2 (P56856 other isoform, or with tags, fused parts or gaps): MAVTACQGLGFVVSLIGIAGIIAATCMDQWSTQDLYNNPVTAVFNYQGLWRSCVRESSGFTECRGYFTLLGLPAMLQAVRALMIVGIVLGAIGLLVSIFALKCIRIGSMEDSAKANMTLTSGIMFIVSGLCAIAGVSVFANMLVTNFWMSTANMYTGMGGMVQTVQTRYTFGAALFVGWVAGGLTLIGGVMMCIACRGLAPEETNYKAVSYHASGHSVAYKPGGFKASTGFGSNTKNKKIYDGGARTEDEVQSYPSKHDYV

B1: 008LYG_D08 IgG1 (antibody, V domains shown)
VH: QVQLVQSGAEVKKPGSSVKVSCKASGGTFSSYAISWVRQAPGQGLEWMGGIIPIFGTANYAQKFQGRVTITADESTSTAYMELSSLRSEDTAVYYCARGYQGMGVFDPWGQGTLVTVSS
VL: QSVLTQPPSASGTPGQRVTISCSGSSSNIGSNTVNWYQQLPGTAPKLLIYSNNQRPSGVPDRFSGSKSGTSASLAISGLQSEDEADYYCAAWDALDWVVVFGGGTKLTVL
In general, EC50 refers to the concentration giving half of the maximal effect. B1: the EC50 was determined as 0.0926 µM in assay [1], 0.0991 µM in assay [2] and 0.0813 µM in assay [3].

B2: ZP1I16_D05 IgG1 (antibody, V domains shown)
VH: QVQLVQSGAEVKKPGSSVKVSCKASGGTFSSYAISWVRQAPGQGLEWMGGIIPIFGTANYAQKFQGRVTITADESTSTAYMELSSLRSEDTAVYYCARGFIRYGVFDYWGQGTLVTVSS
VL: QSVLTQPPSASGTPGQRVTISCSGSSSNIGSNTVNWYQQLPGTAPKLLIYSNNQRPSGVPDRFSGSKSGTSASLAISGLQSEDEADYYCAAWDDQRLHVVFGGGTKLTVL
Regarding B2, the EC50 in assay [1] was 0.00789 µM; in assay [2], 0.0118 µM.

B3: 008M0G_G03 IgG1 (antibody, V domains shown)
VH: QVQLVQSGAEVKKPGSSVKVSCKASGGTFSSYAISWVRQAPGQGLEWMGGIIPIFGTANYAQKFQGRVTITADESTSTAYMELSSLRSEDTAVYYCARGYPRYGVFDYWGQGTLVTVSS
VL: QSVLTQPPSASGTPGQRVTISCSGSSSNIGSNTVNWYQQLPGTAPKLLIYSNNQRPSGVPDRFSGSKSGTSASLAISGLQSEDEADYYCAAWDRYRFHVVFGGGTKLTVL
With B3, the EC50 in assay [1] is 0.00855 µM; in assay [2], 0.0111 µM.

B4: 008LY1_D04 IgG1 (antibody, V domains shown)
VH: QVQLVQSGAEVKKPGSSVKVSCKASGGTFSSYAISWVRQAPGQGLEWMGGIIPIFGTANYAQKFQGRVTITADESTSTAYMELSSLRSEDTAVYYCARGYVQYGYFDYWGQGTLVTVSS
VL: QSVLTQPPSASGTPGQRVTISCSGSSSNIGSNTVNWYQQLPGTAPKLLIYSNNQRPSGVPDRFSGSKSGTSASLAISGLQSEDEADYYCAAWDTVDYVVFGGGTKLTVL
The molecule B4 gave an EC50 in assay [1] of 0.00907 µM.

B5: ZP1I18_B08 IgG1 (antibody, V domains shown)
VH: QVQLVQSGAEVKKPGSSVKVSCKASGGTFSSYAISWVRQAPGQGLEWMGGIIPIFGTANYAQKFQGRVTITADESTSTAYMELSSLRSEDTAVYYCARGFIRYGVFDYWGQGTLVTVSS
VL: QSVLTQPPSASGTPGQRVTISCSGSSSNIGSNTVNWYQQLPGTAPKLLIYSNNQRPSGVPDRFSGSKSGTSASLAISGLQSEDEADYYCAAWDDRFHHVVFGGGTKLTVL
For B5, the EC50 in assay [1] worked out at 0.0131 µM; in assay [2] it was 0.0105 µM.
